Reference: the supplement of paper PMC12764529
± gives the half width of the 95% confidence interval.

What was measured:
[1] = folding stability dG unfold from trypsin proteolysis; higher = more stable
Experimental: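 Folding stability of de novo designed mini-proteins (<80 aa, no Cys; designed by TrROS, TrMRF, ProteinMPNN and the joint model) was measured by cDNA display proteolysis with trypsin and chymotrypsin. Each protease was used at 11 concentrations in a threefold dilution series plus a no-protease condition. K50 was inferred by Bayesian fitting of sequencing counts, and dG unfold was derived against a sequence-predicted unfolded-state K50 (Tsuboyama et al. method). Sequences shown include variable-length N-terminal GS-type padding (SAGGSAGG...) inside a display construct carrying a PA tag. Rows were kept only if the AF2 dimer inter-PAE was >15, to exclude likely homo-oligomers.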

[2] = folding stability dG unfold (combined trypsin and chymotrypsin); higher = more stable
Procedure, shortened: (§1)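 Unfolding free energy was derived, per protease or combined, by relating Bayesian-fitted K50 values from sequencing counts to a sequence-predicted unfolded-state K50 and a shared folded-state K50. The underlying digests exposed cysteine-free mini-proteins under 80 residues, in a PA-tagged cDNA display construct, to trypsin and chymotrypsin at 11 threefold-diluted concentrations and to a no-protease condition. A filter kept only designs with AlphaFold2 dimer inter-PAE above 15.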

[3] = folding stability dG unfold from chymotrypsin proteolysis; higher = more stable
Procedure, shortened: as §1

## SAGGMTSYSVTVELPETGKKITITVPNNDPNVTPEKAAAEAEKRIKAEKEKIKKELEKKPKKPSSKLKSAGG [r13_126_JUSTAS]
[1]
  folding stability dG unfold: -0.907 ± 0.93 kcal/mol
[2]
  folding stability dG unfold: < -1 kcal/mol

## SMPKVVKTVKITKSEAKEFLEKLDIGPDKSVTILETDPNGKSSLHTIGPNKILSSEPVDTLPNTWTIEISSA [r9_849_JUSTAS]
[1]
  folding stability dG unfold: -0.0776 ± 0.13 kcal/mol
[2]
  folding stability dG unfold: -0.416 ± 0.35 kcal/mol

## SAGGSAGGSMPVEVKFTVEKDPSTDLLTVTVTRPGGEVTPITYPDPNNLEAAKAAAEALAKASSAGGSAGGS [r12_1012_JUSTAS]
[1]
  folding stability dG unfold: 0.365 ± 0.076 kcal/mol
[2]
  folding stability dG unfold: -0.2 ± 0.41 kcal/mol

## SAGGSAGGSAMRVVEITVPPENPEELKREIAEAFPFEVEGEEVGDGSVTLRFILPEDVELGSAGGSAGGSAG [r3_457_TrMRF]
[1]
  folding stability dG unfold: 0.142 ± 0.097 kcal/mol
[2]
  folding stability dG unfold: -0.212 ± 0.13 kcal/mol

## SAGGSAGGSAGGSGAEEAAKAVREAFPELGVPILVEVGYIPGTKELPVRVYIPSTRLELSAGGSAGGSAGGS [r4_312_TrMRF]
[1]
  folding stability dG unfold: -0.294 ± 0.055 kcal/mol
[2]
  folding stability dG unfold: < -1 kcal/mol

## SAGGSAGGSAGGMENGKIEIYKKEKDTFIAKINNGDKVIIIEKIKSIEELKEALIELGYGSAGGSAGGSAGG [r7_91_TrMRF]
[1]
  folding stability dG unfold: 0.527 ± 0.029 kcal/mol
[2]
  folding stability dG unfold: 0.136 ± 0.17 kcal/mol

## SDDLSTTVTVTTPGGPTLTLTFPSNASVSTSPIDENSIVITFPGYEAVVEIAPGGKPRLKEVSEKEPVDSSA [r9_773_JUSTAS]
[1]
  folding stability dG unfold: -0.534 ± 0.2 kcal/mol
[2]
  folding stability dG unfold: < -1 kcal/mol

## SAGGSAGGSAGGSSLSTVAPSPSGRLYVELDIDEPVVSPTPIPTGTGPVSGIIVSPVLLSAGGSAGGSAGGS [r10_92_JUSTAS]
[1]
  folding stability dG unfold: -0.989 ± 0.31 kcal/mol
[2]
  folding stability dG unfold: < -1 kcal/mol

## SAGGSAGGSMIVEKKYSLDPAKGTITTTTTTVTPVPNGDSLIVSTTTTTKSVSPSESPDISSSSAGGSAGGS [r12_700_JUSTAS]
[1]
  folding stability dG unfold: -0.39 ± 0.066 kcal/mol
[2]
  folding stability dG unfold: -0.553 ± 0.24 kcal/mol

## SAGGSAGGSVKELAKKLNIKEVKVEPVDGEKVTLIKIKVKNKKTKKEYEKTILIKDKKTGKILSAGGSAGGS [r12_133_TrROS_Hall]
[1]
  folding stability dG unfold: -0.405 ± 0.23 kcal/mol
[2]
  folding stability dG unfold: -0.845 ± 0.38 kcal/mol

## SAGGSAGGSAGGGENVTTEEKVLEVSYDPSKNSYSTLVKVTVKYPNGTTEEFEVVEEKLSAGGSAGGSAGGS [r10_1214_JUSTAS]
[1]
  folding stability dG unfold: 0.334 ± 0.042 kcal/mol
[2]
  folding stability dG unfold: -0.0354 ± 0.21 kcal/mol

## MAVTPEVLERMREEGVPEEVLAELGEVAVPSSDPRPEYIAELRALPGVSEVSPIPPTDPAALAALPERLLES [r1_248_JUSTAS]
[1]
  folding stability dG unfold: -0.884 ± 0.54 kcal/mol
[2]
  folding stability dG unfold: < -1 kcal/mol

## SAGGSAEKLEEAIEEAKKVPEGAEVPILITVEKDGKPVVFEVKITRLPKEKKIKIDPLKAYLPEEFSAGGSA [r15_724_TrMRF]
[1]
  folding stability dG unfold: -0.63 ± 0.39 kcal/mol
[2]
  folding stability dG unfold: < -1 kcal/mol

## SAGGSAGSMSIEEVVEKAKEEGIEVEVTSLPESGLTVVTITKKLPNGEVVESIILEHPEGTTTVLSSAGGSA [r15_1051_JUSTAS]
[1]
  folding stability dG unfold: 0.644 ± 0.057 kcal/mol
[2]
  folding stability dG unfold: 0.0134 ± 0.14 kcal/mol

## SAGGSAGGSAMPIPALVLVERPLPDGETEEREIPVIVEPDKIDEIIEEAEKEGYKVKEVKASAGGSAGGSAG [r3_453_TrMRF]
[1]
  folding stability dG unfold: -0.271 ± 0.06 kcal/mol
[2]
  folding stability dG unfold: < -1 kcal/mol

## SGSMTPLTVEREVDITVVETRFLPNGGEVKKRRVTVTTTVTLPGGVPVSTQTTTIESPDLSEEEILERLSSA [r9_371_JUSTAS]
[1]
  folding stability dG unfold: 0.357 ± 0.051 kcal/mol
[2]
  folding stability dG unfold: -0.752 ± 0.15 kcal/mol

## SAGGSAGGSAGGSATVINIPASSLSEEEIEALAKALEEEDPSIKGPKIEKGDGTYTIVQSAGGSAGGSAGGS [r4_330_JUSTAS]
[1]
  folding stability dG unfold: 0.553 ± 0.046 kcal/mol
[2]
  folding stability dG unfold: -0.533 ± 0.23 kcal/mol

## SAGGSAGGSGKTIIIPLPNGNVIKVEVEEGSVKITYPKPKKELIKVENPKNALKNIKTYSYKGSAGGSAGGS [r12_32_TrMRF]
[1]
  folding stability dG unfold: -0.176 ± 0.32 kcal/mol
[2]
  folding stability dG unfold: < -1 kcal/mol

## SAGGIKLPPGQEIEGKIQYPFPDGMFMTSEQPIRIPPVPPPPPEVEVHLPDGERKPVRSPEEADDAASAGGS [r16_580_TrROS]
[1]
  folding stability dG unfold: 0.0184 ± 0.049 kcal/mol
[2]
  folding stability dG unfold: -0.511 ± 0.26 kcal/mol

## SKKWKVDLDIQEDPDNGTVIGMVRVESEDGEKRPPPEEIARELAEKLREKGYKVEAEPHPGWFMITVKPPSA [r9_510_TrROS]
[1]
  folding stability dG unfold: 0.371 ± 0.24 kcal/mol
[2]
  folding stability dG unfold: 0.153 ± 0.48 kcal/mol

## SAGGSAGGSAGGKKKKKKVSINIRGGMSVEEVKGKAQELQSQGDPDVKEVKIHISPNMWSAGGSAGGSAGGS [r10_233_TrROS]
[1]
  folding stability dG unfold: 0.33 ± 0.11 kcal/mol

## SAGGSAGGSAGGTAEELKEKLPDVEFVPLEELENSVLILAKPPGGPVKLILVDGDKVVVASAGGSAGGSAGG [r7_25_TrMRF]
[1]
  folding stability dG unfold: 0.322 ± 0.097 kcal/mol

## SNVFPMEMTITVPVRDPKNGKKKTVDIPVPMYYRMEPEPYPDGKREMEPIPMEQFLEEIRRQAKELAKKGSA [r9_698_TrROS]
[1]
  folding stability dG unfold: 0.764 ± 0.21 kcal/mol

## SAGGSAGGSAGGSMVAKELAEKIGAKVEGVEVKPIFDPEGKPVSEELKAKIEVLPPDYPLSAGGSAGGSAGG [r7_650_JUSTAS]
[1]
  folding stability dG unfold: -0.537 ± 0.19 kcal/mol

## SAGGIKELQEALREGNLPEIIKELKKRGYENVKIQPNPDEGTIEIEIERKDPEDGKPEEEELTIPLEPSAGG [r13_359_TrROS]
[3]
  folding stability dG unfold: 0.184 ± 0.084 kcal/mol
[2]
  folding stability dG unfold: -0.271 ± 0.21 kcal/mol

## SAGGSAGGSAGGMDEPVSLPVRKPILSPGSPEEAEARAAELKAPGVEVDAVPRDAAGRLESAGGSAGGSAGG [r11_703_JUSTAS]
[3]
  folding stability dG unfold: 0.764 ± 0.037 kcal/mol
[2]
  folding stability dG unfold: 0.126 ± 0.13 kcal/mol

## SAGGSAGGSAGGRTYRLTLTRPDGRPLTFEVPTDTAPEHVELLKSLFPDEEIEADISDVESAGGSAGGSAGG [r7_349_TrMRF]
[3]
  folding stability dG unfold: 0.491 ± 0.22 kcal/mol
[2]
  folding stability dG unfold: -0.652 ± 0.46 kcal/mol

## SAGGMTVTIESVERLPGGVEVRRMVIETLDPNNPTPSTVERELVTEFTPSVDPEGRPGRLARREEVLGSAGG [r13_612_JUSTAS]
[3]
  folding stability dG unfold: 0.0887 ± 0.12 kcal/mol
[2]
  folding stability dG unfold: -0.237 ± 0.15 kcal/mol

## SAGGGSTVVTTTEPAAAVRARVEAEARARGVALDVDVTVEPTPEGPVVTFDVRVDPGAPAVPAANRVSAGGS [r16_262_JUSTAS]
[3]
  folding stability dG unfold: 0.0214 ± 0.23 kcal/mol
[2]
  folding stability dG unfold: -0.629 ± 0.25 kcal/mol

## SAGGSAGGSAGGMTETKVYPKSSEGGKLTTITTTTTPLKDPKGNWSTKTTTTTSVSPATSAGGSAGGSAGGS [r10_496_JUSTAS]
[3]
  folding stability dG unfold: 0.131 ± 0.15 kcal/mol
[2]
  folding stability dG unfold: -0.486 ± 0.27 kcal/mol

## SAGMTPDETVNILVSPDDSPEKVAEIIARHGPLTVTLPGSTREFTSEEEIRALYEQHPEDQVINVTVLSAGG [r19_95_JUSTAS]
[3]
  folding stability dG unfold: -0.0129 ± 0.21 kcal/mol
[2]
  folding stability dG unfold: -0.447 ± 0.28 kcal/mol

## SAGGSAGGSAGEWIPADYIRDFARNLGMPGKIDVERKEDGWFTIEIRNNGGPRKIQIPLDSAGGSAGGSAGG [r11_410_TrROS]
[3]
  folding stability dG unfold: 0.00957 ± 0.25 kcal/mol
[2]
  folding stability dG unfold: -0.548 ± 0.38 kcal/mol

## SAMEELAKKLKELFPNLEIVSIEEEEVEVEGKKRKVLRIKIKNKNGELLEIEFETPEDKEIAELLKKLLSAG [r14_143_TrROS_Hall]
[3]
  folding stability dG unfold: 5.53 ± 0.15 kcal/mol
[2]
  folding stability dG unfold: > 6 kcal/mol

## SAGGSAGGSAGGPALAEELARKLPPGARVRVRVERDADGNLTITVEVEPAPPVEVVEEESAGGSAGGSAGGS [r10_385_TrROS_Hall]
[3]
  folding stability dG unfold: 0.366 ± 0.044 kcal/mol
[2]
  folding stability dG unfold: -0.06 ± 0.23 kcal/mol

## SAGGSAGGSPPVIHPMTVTTLAYDPATGVVDVLVDDKGKDPAVREAAEAAARAAGHPVEVVPRSAGGSAGGS [r20_157_JUSTAS]
[3]
  folding stability dG unfold: -0.637 ± 0.34 kcal/mol
[2]
  folding stability dG unfold: < -1 kcal/mol

## SAGGSSLDDPSLLPGVTLTVTLPETGEVLRVPSSEVVSGPLSEAAARVRAEVAAAHPGRPWEVRAESAGGSA [r2_392_JUSTAS]
[3]
  folding stability dG unfold: -0.728 ± 0.42 kcal/mol
[2]
  folding stability dG unfold: < -1 kcal/mol

## SAGGSAGGDHVQIEFPIWRMKEVERNPDNGEPRMDMEPIEITIWYPPDDPEKAKKIADEILDFISAGGSAGG [r6_280_TrROS]
[3]
  folding stability dG unfold: 0.891 ± 0.14 kcal/mol
[2]
  folding stability dG unfold: 0.409 ± 0.18 kcal/mol
